This assay has as its target IL-1 receptor (human) (UniProt P14778). The assay can be described thus: cell-based or functional assay.

From US20120005127A1 come the findings set out here.

UniProt P14778, sequence (P14778 18-569): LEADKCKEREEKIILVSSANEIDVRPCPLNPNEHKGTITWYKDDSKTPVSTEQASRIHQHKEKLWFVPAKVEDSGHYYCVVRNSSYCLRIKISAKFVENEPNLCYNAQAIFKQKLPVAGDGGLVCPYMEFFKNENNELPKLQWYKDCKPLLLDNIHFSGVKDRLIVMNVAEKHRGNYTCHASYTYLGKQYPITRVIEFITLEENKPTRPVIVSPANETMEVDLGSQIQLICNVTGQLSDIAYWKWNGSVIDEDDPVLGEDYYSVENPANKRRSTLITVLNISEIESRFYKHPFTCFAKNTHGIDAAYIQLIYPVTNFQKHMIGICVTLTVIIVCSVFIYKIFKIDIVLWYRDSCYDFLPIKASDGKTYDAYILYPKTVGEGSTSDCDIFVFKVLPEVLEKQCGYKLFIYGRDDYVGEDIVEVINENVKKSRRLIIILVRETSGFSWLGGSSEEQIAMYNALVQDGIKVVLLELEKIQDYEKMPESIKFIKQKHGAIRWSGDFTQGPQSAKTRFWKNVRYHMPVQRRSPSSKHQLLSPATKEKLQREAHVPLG

For the substance “Kineret® (anakinra) (from UniProt P18510 26-177) (ligand)”, the IC50 (pM): inhibition of IL-1β induced production of IL-8 in human whole blood was 53.4 pM.
